± gives the uncertainty stated by the source.
experiment: abundance fitness (aPCA) (normalised: wild type 0, dead -1); higher = more abundant; growth selection in yeast, the domain comes from the species named; settings: Homo sapiens

In order of falling abundance fitness:
1. BAG family molecular chaperone regulator 3 P37K, O95817  0.937 ± 0.12
2. BAG family molecular chaperone regulator 3 P37T, O95817  0.898 ± 0.11
3. BAG family molecular chaperone regulator 3 P37E, O95817  0.86 ± 0.092
4. BAG family molecular chaperone regulator 3 P37R, O95817  0.857 ± 0.077
5. BAG family molecular chaperone regulator 3 P37S, O95817  0.7 ± 0.072
6. BAG family molecular chaperone regulator 3 P21M, O95817  0.673 ± 0.18
7. BAG family molecular chaperone regulator 3 P37Y, O95817  0.573 ± 0.18
8. BAG family molecular chaperone regulator 3 P37F, O95817  0.528 ± 0.17
9. BAG family molecular chaperone regulator 3 P37H, O95817  0.517 ± 0.18
10. BAG family molecular chaperone regulator 3 P37I, O95817  0.485 ± 0.08
11. BAG family molecular chaperone regulator 3 P37M, O95817  0.465 ± 0.12
12. BAG family molecular chaperone regulator 3 P24S, O95817  0.456 ± 0.099
13. BAG family molecular chaperone regulator 3 P37N, O95817  0.448 ± 0.2
14. BAG family molecular chaperone regulator 3 P37D, O95817  0.447 ± 0.16
15. BAG family molecular chaperone regulator 3 P21V, O95817  0.443 ± 0.063
16. BAG family molecular chaperone regulator 3 P32T, O95817  0.423 ± 0.071
17. BAG family molecular chaperone regulator 3 P37A, O95817  0.4 ± 0.12
18. BAG family molecular chaperone regulator 3 P21R, O95817  0.382 ± 0.081
19. BAG family molecular chaperone regulator 3 P37V, O95817  0.358 ± 0.079
20. BAG family molecular chaperone regulator 3 P21S, O95817  0.349 ± 0.089
21. BAG family molecular chaperone regulator 3 P32G, O95817  0.335 ± 0.076
22. BAG family molecular chaperone regulator 3 P24K, O95817  0.269 ± 0.16
23. BAG family molecular chaperone regulator 3 P37Q, O95817  0.24 ± 0.16
24. BAG family molecular chaperone regulator 3 P21Q, O95817  0.192 ± 0.063
25. BAG family molecular chaperone regulator 3 P23H, O95817  0.173 ± 0.23
26. BAG family molecular chaperone regulator 3 P37C, O95817  0.143 ± 0.2
27. BAG family molecular chaperone regulator 3 P24N, O95817  0.135 ± 0.24
28. BAG family molecular chaperone regulator 3 P55C, O95817  0.133 ± 0.29
29. BAG family molecular chaperone regulator 3 P37L, O95817  0.128 ± 0.067
30. BAG family molecular chaperone regulator 3 P37W, O95817  0.115 ± 0.086
31. BAG family molecular chaperone regulator 3 P32N, O95817  0.039 ± 0.29
32. BAG family molecular chaperone regulator 3 P32R, O95817  0.039 ± 0.074
33. BAG family molecular chaperone regulator 3 P37G, O95817  0.024 ± 0.084
34. BAG family molecular chaperone regulator 3 P55A, O95817  0.013 ± 0.078
35. BAG family molecular chaperone regulator 3 P32K, O95817  -0.002 ± 0.068
36. BAG family molecular chaperone regulator 3 P55F, O95817  -0.012 ± 0.13
37. BAG family molecular chaperone regulator 3 P24T, O95817  -0.036 ± 0.086
38. BAG family molecular chaperone regulator 3 P24R, O95817  -0.037 ± 0.085
39. BAG family molecular chaperone regulator 3 P52K, O95817  -0.039 ± 0.22
40. BAG family molecular chaperone regulator 3 P32S, O95817  -0.054 ± 0.087
41. BAG family molecular chaperone regulator 3 P21N, O95817  -0.081 ± 0.21
42. BAG family molecular chaperone regulator 3 P52C, O95817  -0.092 ± 0.3
43. BAG family molecular chaperone regulator 3 P21L, O95817  -0.112 ± 0.094
44. BAG family molecular chaperone regulator 3 P21Y, O95817  -0.152 ± 0.21
45. BAG family molecular chaperone regulator 3 P32Q, O95817  -0.205 ± 0.28
46. BAG family molecular chaperone regulator 3 P24Q, O95817  -0.21 ± 0.14
47. BAG family molecular chaperone regulator 3 P32Y, O95817  -0.23 ± 0.38
48. BAG family molecular chaperone regulator 3 P32V, O95817  -0.268 ± 0.13
49. BAG family molecular chaperone regulator 3 P55D, O95817  -0.281 ± 0.39
50. BAG family molecular chaperone regulator 3 P32E, O95817  -0.285 ± 0.13
51. BAG family molecular chaperone regulator 3 P52S, O95817  -0.303 ± 0.11
52. BAG family molecular chaperone regulator 3 P24Y, O95817  -0.31 ± 0.28
53. BAG family molecular chaperone regulator 3 P32W, O95817  -0.316 ± 0.095
54. BAG family molecular chaperone regulator 3 P23A, O95817  -0.378 ± 0.16
55. BAG family molecular chaperone regulator 3 P24F, O95817  -0.383 ± 0.31
56. BAG family molecular chaperone regulator 3 P52G, O95817  -0.389 ± 0.1
57. BAG family molecular chaperone regulator 3 P32L, O95817  -0.458 ± 0.12
58. BAG family molecular chaperone regulator 3 P24A, O95817  -0.464 ± 0.096
59. BAG family molecular chaperone regulator 3 P24C, O95817  -0.489 ± 0.29
60. BAG family molecular chaperone regulator 3 P32F, O95817  -0.511 ± 0.47
61. BAG family molecular chaperone regulator 3 P23Y, O95817  -0.54 ± 0.29
62. BAG family molecular chaperone regulator 3 P52D, O95817  -0.542 ± 0.42
63. BAG family molecular chaperone regulator 3 P52H, O95817  -0.542 ± 0.48
64. BAG family molecular chaperone regulator 3 P21W, O95817  -0.543 ± 0.086
65. BAG family molecular chaperone regulator 3 P23E, O95817  -0.544 ± 0.14
66. BAG family molecular chaperone regulator 3 P24D, O95817  -0.597 ± 0.36
67. BAG family molecular chaperone regulator 3 P23K, O95817  -0.604 ± 0.094
68. BAG family molecular chaperone regulator 3 P23I, O95817  -0.612 ± 0.22
69. BAG family molecular chaperone regulator 3 P23G, O95817  -0.622 ± 0.18
70. BAG family molecular chaperone regulator 3 P52R, O95817  -0.633 ± 0.12
71. BAG family molecular chaperone regulator 3 P32D, O95817  -0.64 ± 0.39
72. BAG family molecular chaperone regulator 3 P24W, O95817  -0.659 ± 0.21
73. BAG family molecular chaperone regulator 3 P24M, O95817  -0.662 ± 0.21
74. BAG family molecular chaperone regulator 3 P23W, O95817  -0.692 ± 0.095
75. BAG family molecular chaperone regulator 3 P23F, O95817  -0.697 ± 0.44
76. BAG family molecular chaperone regulator 3 P52A, O95817  -0.727 ± 0.16
77. BAG family molecular chaperone regulator 3 P32A, O95817  -0.735 ± 0.17
78. BAG family molecular chaperone regulator 3 P52L, O95817  -0.741 ± 0.12
79. BAG family molecular chaperone regulator 3 P32M, O95817  -0.766 ± 0.23
80. BAG family molecular chaperone regulator 3 P24G, O95817  -0.77 ± 0.22
81. BAG family molecular chaperone regulator 3 P23M, O95817  -0.772 ± 0.34
82. BAG family molecular chaperone regulator 3 P24V, O95817  -0.784 ± 0.23
83. BAG family molecular chaperone regulator 3 P55E, O95817  -0.8 ± 0.36
84. BAG family molecular chaperone regulator 3 P23Q, O95817  -0.83 ± 0.33
85. BAG family molecular chaperone regulator 3 P52W, O95817  -0.837 ± 0.22
86. BAG family molecular chaperone regulator 3 P23L, O95817  -0.858 ± 0.2
87. BAG family molecular chaperone regulator 3 P23S, O95817  -0.864 ± 0.26
88. BAG family molecular chaperone regulator 3 P23C, O95817  -0.932 ± 0.19
89. BAG family molecular chaperone regulator 3 P52E, O95817  -0.948 ± 0.38
90. BAG family molecular chaperone regulator 3 P52M, O95817  -1.07 ± 0.46
91. BAG family molecular chaperone regulator 3 P52T, O95817  -1.12 ± 0.39

From the Human Domainome abundance scans (Beltran et al. 2025)
